Several values for one entry are separate records, joined by “and”; a condition that tells them apart may be missing. Identical values can stand only once.
System: CN(C)CCc1c[nH]c2ccc(C[C@H]3COC(=O)N3)cc12
Experiment: cells, lysate or membranes
Conditions: other: HEK293, 1 min, net uptake; pH 7.4; 37.0 °C

Chain of MATE2K (Homo sapiens) (chain, as listed by the source): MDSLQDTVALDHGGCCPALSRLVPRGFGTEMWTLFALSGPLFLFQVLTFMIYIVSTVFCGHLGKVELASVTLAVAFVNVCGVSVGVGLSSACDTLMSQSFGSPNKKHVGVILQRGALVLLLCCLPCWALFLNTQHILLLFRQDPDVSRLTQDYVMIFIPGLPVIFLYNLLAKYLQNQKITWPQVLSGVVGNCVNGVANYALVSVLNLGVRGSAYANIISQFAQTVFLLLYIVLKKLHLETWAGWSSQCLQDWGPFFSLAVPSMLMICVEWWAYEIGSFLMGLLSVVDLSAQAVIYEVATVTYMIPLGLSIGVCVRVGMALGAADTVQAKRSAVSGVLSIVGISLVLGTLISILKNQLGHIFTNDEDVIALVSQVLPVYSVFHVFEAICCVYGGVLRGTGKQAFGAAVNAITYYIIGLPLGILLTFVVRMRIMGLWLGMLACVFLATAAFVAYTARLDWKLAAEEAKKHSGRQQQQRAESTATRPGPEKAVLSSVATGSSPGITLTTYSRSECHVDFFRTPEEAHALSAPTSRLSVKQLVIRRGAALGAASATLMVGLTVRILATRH

MATE2K (Homo sapiens)
Km: 23.1 µM and 18.3 µM
Vmax: 0.00074 µmol/min/mg and 0.000992 µmol/min/mg
Vmax/Km: 32.1 µL/min/mg and 54.2 µL/min/mg

Source: paper PMC12207590, “Substrate Specificity of the Organic Cation Transporters MATE1 and MATE2K and Functional Overlap with OCT1 and OCT2” (Journal of Medicinal Chemistry, 2025)
